The DeepSol protein solubility set

Experiment: soluble on expression in E. coli; label from the status in PepcDB or PDB records

Sequence	soluble on expression in E. coli
MNLAGSTIQAYRQRKIESLAKMSNMSQDDVTTGLRTVQQGLEALREEHSTISNTLETSVKGVKEDEAPLPKQKLSQINDNLDKLVCGVDETSLMLMVFQLTQGMDAQHQKYQAQRRRLCQENAWLRDELSSTQIKLQQSEQMVAQLEEENKHLKYMASIKQFDDGTQSDTKTSVDVGPQPVTNETLQELGFGPEDEEDMNASQFNQPTPANQMAASANVGYEIPARLRTLHNLVIQYASQGRYEVAVPLCKQALEDLEKTSGHDHPDVATMLNILALVYRDQNKYKEAANLLNEALSIREKCLGESHPAVAATLNNLAVLFGKRGKFKDAEPLCKRALEIREKVLGDDHPDVAKQLNNLALLCQNQGKYEEVEKYYKRALEIYESKLGPDDPNVAKTKNNLSSAYLKQGKYKEAEELYKQILTRAHEREFGQISGENKPIWQIAEEREENKHKGEGATANEQAGWAKAAKVDSPTVTTTLKNLGALYRRQGKYEAAETLEDVALRAKKQMSESRRMERSVMY	not soluble
MLLQELLGIDEDIYLIEESYTSQRNPELTLQYLNRFLNFPDIENIRIIRVRQAGHTTGLLFFNPADEDVPVDFWSVFTGAFAQPALKEKFETLADSLLNLTSPEKDIELLHETWFNAVNEYYSLMLVNRNLCTSCSVKPESYGNVFSENRIKRVAEILELLRKKGYYPEGRLLEVCCGNGMSTLALYRSGLDPLAIEINKCTICQGLEQGVLNPQRVMVMDAAAVSRYFEPGSFDAVMGFMLGLVYEFNKGLWVRIVREAVSVAADGAVLLFTVSSKPEIEILADALFRAGVDGEIVDNTDSEGAYDQWLFVGRRQKNTST	not soluble
MASTNCVSIQKRDILRGSGSTTWFDVLLEKGSCVTIVADDRPTVDIWLDRITHESPIAGREYCMRVDISGLKIATRCPTLGEAYLSEEHTEDYVCKRGFSDRGWGNGCGLFGKGSIVGCVKTTCKSSGIAKSYSYDIPKVKYVISTEVHKGELISGNVSASVVSATFSSEAEKHSMELEDYGRLEFTCRVVSGSNLGSVRILEIDNHYFNVHEDWLLDLPLPWRIPDGHWHDLGELIAFKEPHAVKMVAQAYGDQRASLLKSLVKAEEIAKSGNSYYLPGGHVDCRVSLVNLKLKGTTYPYCGDSFVWKRRPTATHHGTVAMEVTYQGTDVPCKVSVIVEKDGQNGGNAGSLITSNPIITAQGSSVFLELEVPLGFSTIKVGAAKQQWRQDGSSIGKALETHHHHHH	not soluble
GDLLVVTLENITEAKQGEISLNAALHAAEKQERLYNSITNNTPDLVYVFGLDYSFTYANKALLTMWGKTAEEAIGKGLRENGYEEWHAQMHEREIDEIKATKKSIRGTVSFPHAELGSRMYDYILVPVLNESGEVEAIAGTTRD	not soluble
LRRGHLKLQRDGQIIGHTPEEWEQIFREVWPEYEIEPNPLPGYAPFDIGMWLTVEAPAYAVWIDPEDGSEYWAG	not soluble
MSHQSPPIAEVDATDDMHEALFAKRGCCFLMPCLASSQPSTRGGSVWWQRITTVDKLEPDERWWIRGWRRMREWSELVAGPRWKTYIRRFGRSNCCGGGGGRVGNSSGGCGGGAMPNRSSDQGKFRYDQLSYSLNFDDGNQTGHFDDEFPYRDYSMRFAAPSLPVSTKCSIDFDSDIDNK	soluble
MIIKSISLMHDRGNGLGGGFAAYGIYPDFKEFFAFHLMYENGMALQLTEEYLERHFFVEHYEEIPTRRTPAIVHPPLFKRYFVKPLETPEYREAIDYQNMTDEDVVVRHVMAINNEIEGAFVVSSGKNMGAFKGVGYPEEIADFFRLEEYTGYIWTAHNRFPTNTPGWWGGAHPFTLLDWSIVHNGEISSYGINKRYLEMYGYVCTMLTDTEVVAYTLDLLIRKHGLTPELASLAMAAPFWDMIDGLPDDERQLLTAIRQVYGSALLNGPFAILFASNEGLIGLNDRVKLRPLVCATKDDFVYMASEEAAIREICPAPDKVWSPRGGEPVIVKMQPGVI	not soluble
MAHHHHHHMLKHKYNDSCVQELFYKNNIKLIAIDIDGTLADDTGKISDENLKAIEVCKKGGIEIILASGRLHSYAMKMFTNEQIEKYKIEKLDGVYSHGAYIHMKGYDYVYRKFSYKDLELILFSLGSYNILRNAVFLTVDSAYVINDDIKLIEEYIYTPESEGIISDIEYVKIIDTNYKPILINKIKDIFNIGDIVSIEIYDKLYPNQDIYSDLFKVLFYELQPHYKIYIPSSNNKIVLSPINTAKVHTTQLYAQFYRINLNNILSIGNDDNDIELLSSTGFSVAVKNSTPRALQVARCVSTKTNNENAVANIIYRVLSGRRS	not soluble
MAHHHHHHMLRHLPPPRAHPSPAFCHTHARMHLLQAPPSPHPHPTRTPLQTLCVILPPAMQVELSFIFPHALKELPVSFFVPLSSQRPRTVANLFFMCSGQLPLPAELLSALHLTEAEVAYATPAAAKAAGLLPLSDSAVVRIDKASVMEIGSSTTKSIFGGFISDERVTLPAGTAARGQSIAATMSSLKAGTLLYGNLGMPNTQASRYYILLEPVTTPEQRHEFAGFAPLGMVTGGLAELKRAASQTAVQPRTLVPKKKVVVSGCRMQLDYTYLSSSTEASASVSLGGLCDGTGQDAGKQRPTEPHERVAGRVRRRDDDGDEAKQADPRRALDGDGNTTDPGAAPLHSSGFFKISARFPKAAVAASGAGPSLKRRRAEAFVVGDDGVPTLRTTAIAPGEQVGGDGTAEPFEFFKAQQDAFMNDIEGIKDAQLQRFNRKARRIMKSRRAWASSSSSGRHANSQQHSSSSGTHVTGSGALSKTGAKKTKPKRY	not soluble
MSLTIEDNHGTEGISLPIEGVAATDNRAFELLDRWGVELVAAPLQLVPFTVTGYTEEGGVANLGSHREPDLEALAAAQPSLIINGQRFAQYYDDIIALNPDATVVELDPRDGEPLDQELIRQAETLGEIFGEEEDAAKIVADFESALERAKTAYAAISDQTVMAVNVSGGNIGYIAPSVGRTYGPIFDLVGLTPALEVGNASSDHEGDDINVEAIAAANPDLILVMDRDGGTSTRNEADYVPAEQIVSDNEALANVKAVTDGYVYYAPADTYTNENIITYTEILNGMADMFEKAAQEGHHHHHH	soluble
LVLEGGGMRGLYTAGVLDAFLEAGIKVDGVVSVSAGALFGVNYLSNQPKRALRYNKRFMGDRRYMSFWSWLTTGNFVNKEFSYYKVPMELDVFDQDAFAESGVPFYVVATDIKTGKPDYIKIDHVFEQMEALRASSALPLVSEIVEYKGKRYMDGGLADSLPI	not soluble
MTTPYCFNLAMRKSSRLITQFYEDRLSAVGLKSGQFSILKAVSFLKQTSNKELQGILVLDQTTLSRNLKPLFRDGYLKLSPDSNDARVKLISLTTQGQALYEKADPLWQKAQDDLEKKLGSEEVKNILTLADSFVKALAR	not soluble
MAHHHHHHMLEDPNFSDFTGLHKSVTALTAANSDLARYGNELHKMILRYQLEVLSGTCNYVEVLSLAAYNGNLTAAEYVNNIEPVILGDDSVSVDIDTRTNTLSFRDSSKAKMLSYFNKIVANVDTVPASSLATTSGRYSDFTHVAASSSKREVMPLAADLDAARARSTSIYALQKACMNSKAERIEEAKKSEDKKRERAVAERREQEEAKKEETQKAYIRKLYAEYNERQRQERGKEVLRKLRIKYPGFKVDESIVYRSAAGFEDELTRLLAAFKRRGVDNDRKEILQANLYERALRALEIPKRKDYEAQNAERTRAERAAARENYLAEHRREYDRRQNEKAVLSKFLHDADEFERTWRKRANIDKPSKRDEQQRLLEEEMRRLGGE	not soluble
MFRKESTILVLGSKVRGAQPGHVLRWRLEHALELSRHTTGPIVVSGKGEAYVMDDWLIRHGVDYRRLIVEPEATSTNENIENAHALLPDTHEWLVVTSDFHKLRTLAWARHLGVPIRVSSAVTKPPFRVNNFVRECFALPHSLLRIAWRRLLAAAALEHHHHHH	not soluble
MSLNRRELLERISEYQFACIELNLYLDNNPRDKKALDSYNRYCDKFTQAVCDYESKYGALTNFGYESSEYPWSWISEPWPWDKSFYK	soluble
MGSDKIHHHHHHMRVIKVKTISETLDYISKHTASVARFGDGEIDIIAGNSIPYQVYASALAARLERLLNRQSNEKLVICVSDVFDNLGRYNDFSQQFWRDHLYQYNDLYQKNCQAEWYGSTFISRPYMDLLDKSLSVTYFEQLKALWKNKDILIVEGETSRSGVGNDLFNDANTISRIICPSKDAFSSFYEIKETILEHSRGKLILLMLGPTAKLLAEDLSQLGHQAIDLGHIDSEYEWFKMGAVSKVKLSHKHTAEHNFDEDITLIEDNSYENQIVSKIGTSDRQYALTVTLTDDIWELEHLLQRCPNTDFHIAAPVYCSDRLKQLVGYPNYYLHEAITEEQFEVLLLNSDIYLDINHGEEVWNVVDRCITEGKTIYGIRRARKDNQYISFERTMDDFEYLCDTIKQNR	not soluble
